Patent US20160115241A1 (Amgen, published 2016)

What was measured:
[1] = biological target: T1, human CD3 epsilon chain (CD3ε) (human, UniProt P07766 22-207); test: FACS on isolated human T cells; FITC anti-human light chain secondary
T1 construct: also called CD3ε on human T cells; human CD3ε
Protocol: (§1) The heterodimeric bispecific antibodies described in Example 1 were produced in HEK 293 cells and were assayed by fluorescence activated cell sorting (FACS) for binding to T cells, which express CD3ε, and to a human ovarian cancer cell line, Ovcar-8, which expresses mesothelin. Briefly, the heterodimeric bispecific antibodies were incubated with about 50,000 Ovcar-8 cells or isolated human or cynomolgus monkey T cells at 4° C. for one hour. The cells were then washed and stained with a fluorescein isothiocyanate (FITC)-conjugated anti-human light chain secondary antibody and analyzed by flow cytometry. The relative binding was represented by the geometric mean of fluorescence intensity.

[2] = biological target: T2, cynomolgus monkey CD3 epsilon chain (CD3ε) (cynomolgus monkey (Macaca fascicularis), UniProt Q95LI5 22-198); test: cell-based or functional assay
T2 chain: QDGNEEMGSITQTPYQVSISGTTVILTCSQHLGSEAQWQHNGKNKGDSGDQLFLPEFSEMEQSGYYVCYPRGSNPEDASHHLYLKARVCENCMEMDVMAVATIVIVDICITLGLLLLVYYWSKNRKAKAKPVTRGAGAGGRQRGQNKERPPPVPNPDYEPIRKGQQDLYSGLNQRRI

[3] = biological target: T2, cynomolgus monkey CD3 epsilon chain …; test: FACS on isolated cynomolgus monkey T cells; FITC anti-human light chain secondary
Protocol: as §1

T1 sequence (P07766 22-207 limits assumed): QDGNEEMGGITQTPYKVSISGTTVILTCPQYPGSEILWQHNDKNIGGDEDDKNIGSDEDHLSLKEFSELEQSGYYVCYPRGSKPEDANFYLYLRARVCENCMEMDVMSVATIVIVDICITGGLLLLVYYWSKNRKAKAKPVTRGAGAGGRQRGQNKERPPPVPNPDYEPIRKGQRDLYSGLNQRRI

Binder | FACS binding (geometric mean) [1] | Cyno TDCC EC50 (pM), Ovcar-8 target cells with cynomolgus monkey T cells [2] [pM] | Cyno TDCC Max killing (%), Ovcar-8 target cells with cynomolgus monkey T cells [2] [%] | FACS binding (geometric mean) [3]
H71362.2 (anti-MSLN/CD3ε heterodimeric bispecific antibody) (bispecific antibody) chain 1: EVQLVESGGGLVKPGVSLRLSCAASGFTFSRYGMNWVRQAPGKGLEWVSSISSSGTYIKYADSVKGRFTISRDNAKNSLNLQMNSLRAEDTAVYYCARDRDRYPLDYWGQGTLVTVSSASTKGPQVQLQESGPGLVKPSETLSLTCTVSGGSIISHYWSWIRQPPGKGLEWIGYIYYSGSTNYNPSLKSRVTISVDTSKNQFSLKLTSVTAADTAVYYCARDGWSAFDYWGQGTLVTVSSASTKGPSVFPLAPCSRSTSESTAALGCLVKDYFPEPVTVSWNSGALTSGVHTFPAVLQSSGLYSLSSVVTVPSSNFGTQTYTCNVDHKPSNTKVDKTVGGGGSAAAVPRDLEVVAATPTSLLISWDAIGLYPYYYRITYGETGGNSPVQEFTVPGSKSTATISGLKPGVDYTITVYAVSGIFGWNNSKPISINYRTGSSDYKDDDDKGSSHHHHHH chain 2: SYELTQPPSVSVSPGQTARITCSGDALPKKYAYWYQQKSGQAPVLVIYEATKRPSGIPERFSGSSSGTMATLTLSGAQVEDEADYYCYSTDSTNYHWVFGGGTKLTVLGTVAAPDIQMTQSPSSLSASVGDRVTITCRASQGIRNALGWYQQKPGKAPKRLIYAASSLQSGVPSRFSGSGSGTEFTLTISSLQPEDFATYYCLQHNSYPRTFGQGTKVEIRRTVAAPSVFIFPPSDEQLKSGTASVVCLLNNFYPREAKVQWKVDNALQSGNSQESVTEQDSKDSTYSLSSTLTLSKADYEKHKVYACEVTHQGLSSPVTKSFNRGEC | 354 geometric mean of fluorescence intensity |  |  | 
H69070.4 (anti-MSLN/CD3ε heterodimeric bispecific antibody) (bispecific antibody) chain 1: QVQLVESGGGVVQPGRSLRLSCAASGFTFSSYGMHWVRQAPGKGLEWVAVISYPGNTKYYADSVKGRFTISRDNSKNTLYLQMNSLRAEDTAVYFCARDQKEWRLIFDYWGQGTLVTVSSASTKGPQVQLQESGPGLVKPSETLSLTCTVSGGSIISHYWSWIRQPPGKGLEWIGYIYYSGSTNYNPSLKSRVTISVDTSKNQFSLKLTSVTAADTAVYYCARDGWSAFDYWGQGTLVTVSSASTKGPSVFPLAPCSRSTSESTAALGCLVKDYFPEPVTVSWNSGALTSGVHTFPAVLQSSGLYSLSSVVTVPSSNFGTQTYTCNVDHKPSNTKVDKTVGGGGSAAAVPRDLEVVAATPTSLLISWDAPHHGVAYYRITYGETGGNSPVQEFTVPGSKSTATISGLKPGVDYTINVYAVLAYPRGYPLSKPISINYRTDYKDDDDKGSSHHHHHH chain 2: DIQMTQSPSSVSASVGDRVTITCRASQGISSWLAWYQQKPGKAPKLLIYAASSLQSGVPSRFSGSGSGAAFTLTISSLQPEDFATYFCQQANSFPLTFAGGTKVDIKRTVAAPDIQMTQSPSSLSASVGDRVTITCRASQGIRNALGWYQQKPGKAPKRLIYAASSLQSGVPSRFSGSGSGTEFTLTISSLQPEDFATYYCLQHNSYPRTFGQGTKVEIRRTVAAPSVFIFPPSDEQLKSGTASVVCLLNNFYPREAKVQWKVDNALQSGNSQESVTEQDSKDSTYSLSSTLTLSKADYEKHKVYACEVTHQGLSSPVTKSFNRGEC | 9 geometric mean of fluorescence intensity | 3 | 88 | 127 geometric mean of fluorescence intensity
P69058.3 (anti-MSLN/CD3ε heterodimeric bispecific antibody) (bispecific antibody, VH(CD3ε)-linker-VL(MSLN)-CL) chain 1: QVQLQESGPGLVKPSQTLSLTCTVSGGSINNNNYYWTWIRQHPGKGLEWIGYIYYSGSTFYNPSLKSRVTISVDTSKTQFSLKLSSVTAADTAVYYCAREDTMTGLDVWGQGTLVTVSSGGGGSGGGGSSSYELTQPPSVSVSPGQTARITCSGDALPKKYAYWYQQKSGQAPVLVIYEATKRPSGIPERFSGSSSGTMATLTLSGAQVEDEADYYCYSTDSTNYHWVFGGGTKLTVLGASTKGPSVFPLAPCSRSTSESTAALGCLVKDYFPEPVTVSWNSGALTSGVHTFPAVLQSSGLYSLSSVVTVPSSNFGTQTYTCNVDHKPSNTKVDKTVGGGGSAAAVPRDLEVVAATPTSLLISWDAPHHGVAYYRITYGETGGNSPVQEFTVPGSKSTATISGLKPGVDYTINVYAVLAYPRGYPLSKPISINYRTDYKDDDDKGSSHHHHHH chain 2: EVQLVESGGGLVKPGVSLRLSCAASGFTFSRYGMNWVRQAPGKGLEWVSSISSSGTYIKYADSVKGRFTISRDNAKNSLNLQMNSLRAEDTAVYYCARDRDRYPLDYWGQGTLVTVSSGGGGSGGGGSDIQMTQSPSSLSASVGDRVTITCRASQSINNYLNWYQQKPGKAPTLLIYAASSLQSGVPSRFSGSRSGTDFTLTISSLQPEDFAAYFCQQTYSNPTFGQGTKVEVKRTVAAPSVFIFPPSDEQLKSGTASVVCLLNNFYPREAKVQWKVDNALQSGNSQESVTEQDSKDSTYSLSSTLTLSKADYEKHKVYACEVTHQGLSSPVTKSFNRGEC | 290 geometric mean of fluorescence intensity |  |  | 
P57216.9 (anti-MSLN/CD3ε heterodimeric bispecific antibody) (bispecific antibody) chain 1: QVQLQESGPGLVKPSQTLSLTCTVSGGSINNNNYYWTWIRQHPGKGLEWIGYIYYSGSTFYNPSLKSRVTISVDTSKTQFSLKLSSVTAADTAVYYCAREDTMTGLDVWGQGTLVTVSSASTKGPEVQLVESGGGLVKPGVSLRLSCAASGFTFSRYSMNWVRQAPGKGLEWVSSISSSGTYIKYADSVKGRFTISRDNAKNSLNLQMNSLRAEDTAVYYCARDRDRYPLDYWGQGTLVTVSSASTKGPSVFPLAPCSRSTSESTAALGCLVKDYFPEPVTVSWNSGALTSGVHTFPAVLQSSGLYSLSSVVTVPSSNFGTQTYTCNVDHKPSNTKVDKTVGGGGSAAAVPRDLEVVAATPTSLLISWDAPHHGVAYYRITYGETGGNSPVQEFTVPGSKSTATISGLKPGVDYTINVYAVLAYPRGYPLSKPISINYRTDYKDDDDKGSSHHHHHH chain 2: DIQMTQSPSSLSASVGDRVTITCRASQSINNYLNWYQQKPGKAPTLLIYAASSLQSGVPSRFSGSRSGTDFTLTISSLQPEDFAAYFCQQTYSNPTFGQGTKVEVKRTVAAPSSYELTQPPSVSVSPGQTARITCSGDALPKKYAYWYQQKSGQAPVLVIYEATKRPSGIPERFSGSSSGTMATLTLSGAQVEDEADYYCYSTDSTNYHWVFGGGTKLTVLGQPKAAPSVTLFPPSSEELQANKATLVCLISDFYPGAVTVAWKADSSPVKAGVETTTPSKQSNNKYAASSYLSLTPEQWKSHRSYSCQVTHEGSTVEKTVAPTECS | 103 geometric mean of fluorescence intensity |  |  | 
P69059.3 (anti-MSLN/CD3ε heterodimeric bispecific antibody) (bispecific antibody, VL(MSLN)-linker-VH(CD3ε)-CL) chain 1: SYELTQPPSVSVSPGQTARITCSGDALPKKYAYWYQQKSGQAPVLVIYEATKRPSGIPERFSGSSSGTMATLTLSGAQVEDEADYYCYSTDSTNYHWVFGGGTKLTVLGGGGGSGGGGSQVQLQESGPGLVKPSQTLSLTCTVSGGSINNNNYYWTWIRQHPGKGLEWIGYIYYSGSTFYNPSLKSRVTISVDTSKTQFSLKLSSVTAADTAVYYCAREDTMTGLDVWGQGTTVTVSSASTKGPSVFPLAPCSRSTSESTAALGCLVKDYFPEPVTVSWNSGALTSGVHTFPAVLQSSGLYSLSSVVTVPSSNFGTQTYTCNVDHKPSNTKVDKTVGGGGSAAAVPRDLEVVAATPTSLLISWDAPHHGVAYYRITYGETGGNSPVQEFTVPGSKSTATISGLKPGVDYTINVYAVLAYPRGYPLSKPISINYRTDYKDDDDKGSSHHHHHH chain 2: DIQMTQSPSSLSASVGDRVTITCRASQSINNYLNWYQQKPGKAPTLLIYAASSLQSGVPSRFSGSRSGTDFTLTISSLQPEDFAAYFCQQTYSNPTFGQGTKVEVKGGGGSGGGGSEVQLVESGGGLVKPGVSLRLSCAASGFTFSRYSMNWVRQAPGKGLEWVSSISSSGTYIKYADSVKGRFTISRDNAKNSLNLQMNSLRAEDTAVYYCARDRDRYPLDYWGQGTLVTVSSRTVAAPSVFIFPPSDEQLKSGTASVVCLLNNFYPREAKVQWKVDNALQSGNSQESVTEQDSKDSTYSLSSTLTLSKADYEKHKVYACEVTHQGLSSPVTKSFNRGEC | 179 geometric mean of fluorescence intensity |  |  | 
H69071.4 (anti-MSLN/CD3ε heterodimeric bispecific antibody) (bispecific antibody) chain 1: QVQLQESGPGLVKPSQTLSLTCTVSGGSINNNNYYWTWIRQHPGKGLEWIGYIYYSGSTFYNPSLKSRVTISVDTSKTQFSLKLSSVTAADTAVYYCAREDTMTGLDVWGQGTLVTVSSGGGGSGGGGSDIQMTQSPSSVSASVGDRVTITCRASQGISSWLAWYQQKPGKAPKLLIYAASSLQSGVPSRFSGSGSGAAFTLTISSLQPEDFATYFCQQANSFPLTFAGGTKVDIKRASTKGPSVFPLAPCSRSTSESTAALGCLVKDYFPEPVTVSWNSGALTSGVHTFPAVLQSSGLYSLSSVVTVPSSNFGTQTYTCNVDHKPSNTKVDKTVGGGGSAAAVPRDLEVVAATPTSLLISWDAPHHGVAYYRITYGETGGNSPVQEFTVPGSKSTATISGLKPGVDYTINVYAVLAYPRGYPLSKPISINYRTDYKDDDDKGSSHHHHHH chain 2: QVQLVESGGGVVQPGRSLRLSCAASGFTFSSYGMHWVRQAPGKGLEWVAVISYPGNTKYYADSVKGRFTISRDNSKNTLYLQMNSLRAEDTAVYFCARDQKEWRLIFDYWGQGTLVTVSSGGGGSGGGGSDIQMTQSPSSLSASVGDRVTITCRASQSINNYLNWYQQKPGKAPTLLIYAASSLQSGVPSRFSGSRSGTDFTLTISSLQPEDFAAYFCQQTYSNPTFGQGTKVEVKRTVAAPSVFIFPPSDEQLKSGTASVVCLLNNFYPREAKVQWKVDNALQSGNSQESVTEQDSKDSTYSLSSTLTLSKADYEKHKVYACEVTHQGLSSPVTKSFNRGEC | 16 geometric mean of fluorescence intensity | 3.2 | 88 | 121 geometric mean of fluorescence intensity
